# Assays:
# [1] = target: Recombinant human TNF-alpha (Pierce, cat # RTNFA50) (human) (UniProt P01375); test: cell-based or functional assay
# [2] = target: Recombinant human TNF-alpha (Pierce, cat # RTNFA50) (human) (UniProt P01375); test: SPR (BiaCore X), rhTNF-alpha immobilized on CM5 chip, SCA as analyte, 1:1 fit
# Chain of UniProt P01375 (P01375 whole entry, form in doubt): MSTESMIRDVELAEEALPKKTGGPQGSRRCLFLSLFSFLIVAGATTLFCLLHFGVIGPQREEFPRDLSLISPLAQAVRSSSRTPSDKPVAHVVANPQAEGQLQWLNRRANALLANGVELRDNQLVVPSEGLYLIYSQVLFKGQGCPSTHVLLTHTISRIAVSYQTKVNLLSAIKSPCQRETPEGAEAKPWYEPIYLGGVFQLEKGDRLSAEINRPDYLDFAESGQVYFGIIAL
"IC50, TNF-sensitive cell rescue assay, after 5 cycles of freeze-thaw [1]","IC50, TNF-sensitive cell rescue assay, after 10 cycles of freeze-thaw [1]",Ka [2],Kd [2],koff [2],kon [2],IC50 Values (cell rescue of WEHI-13VAR cells from TNF-alpha) [1],Substance,IC50 values (to rescue 50% WEHI-13VAR cells from killing by 1.0 ng/ml TNF) [1]
225 nM,0.302 µg/mL,8.36e+08 M⁻¹,1.2 nM,0.000392 s⁻¹,328000 M⁻¹ s⁻¹,,"2-7-SC-2 SCA (D2E7 SCA, VL-218-VH-his6, C-terminus Cys), native (scFv)",3.05 nM
,,1.55e+10 M⁻¹,0.0644 nM,1.12e-05 s⁻¹,173000 M⁻¹ s⁻¹,4.18 nM,"2-7-SC-5 SCA (D2E7 SCA, VL-218-VH-his6, Cys at linker position 2), native (scFv)",

# Further lines, the substance ahead of its results:
Substance,"IC50, TNF-sensitive cell rescue assay, after 5 cycles of freeze-thaw [1]","IC50, TNF-sensitive cell rescue assay, after 10 cycles of freeze-thaw [1]",Ka [2],Kd [2],koff [2],kon [2],IC50 Values (cell rescue of WEHI-13VAR cells from TNF-alpha) [1],IC50 values (to rescue 50% WEHI-13VAR cells from killing by 1.0 ng/ml TNF) [1]
"2-7-SC-7 SCA (D2E7 SCA, VH-(GGGGS)3-VL-his6, Cys at linker position 2), native (scFv)",,,1.19e+10 M⁻¹,0.0843 nM,2.96e-06 s⁻¹,35100 M⁻¹ s⁻¹,,
"2-7-SC-3 SCA (D2E7 SCA, VH-(GGGGS)3-VL-his6, C-terminus Cys), native (scFv)",,,1.1e+08 M⁻¹,9.05 nM,0.000416 s⁻¹,46400 M⁻¹ s⁻¹,,
"2-7-SC-4 SCA (D2E7 SCA, VL-218-VH, no his tag, C-terminus Cys), native (scFv)",,,5.49e+08 M⁻¹,1.82 nM,0.000495 s⁻¹,272000 M⁻¹ s⁻¹,7.18 nM,

# — US20040009166A1
